Measured values taken from IntAct's records for PubMed 15299139.

B1: Axial regulator YABBY 4 (Arabidopsis thaliana (Mouse-ear cress)), Q9LDT3 (parent)
chain: MTKLPNMTTTLNHLFDLPGQICHVQCGFCTTILLVSVPFTSLSMVVTVRCGHCTSLLSVNLMKASFIPLHLLASLSHLDETGKEEVAATDGVEEEAWKVNQEKENSPTTLVSSSDNEDEDVSRVYQVVNKPPEKRQRAPSAYNCFIKEEIRRLKAQNPSMAHKEAFSLAAKNWAHFPPAHNKRAASDQCFCEEDNNAILPCNVFEDHEESNNGFRERKAQRHSIWGKSPFE
partner: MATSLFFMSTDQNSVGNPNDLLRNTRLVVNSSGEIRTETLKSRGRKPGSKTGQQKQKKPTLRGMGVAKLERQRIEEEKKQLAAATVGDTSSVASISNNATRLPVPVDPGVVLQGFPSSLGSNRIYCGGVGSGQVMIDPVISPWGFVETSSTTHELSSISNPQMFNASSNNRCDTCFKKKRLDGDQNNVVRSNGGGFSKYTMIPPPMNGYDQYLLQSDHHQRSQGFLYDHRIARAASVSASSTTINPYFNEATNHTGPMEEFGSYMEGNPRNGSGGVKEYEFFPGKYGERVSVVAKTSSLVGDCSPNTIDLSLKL

Variants of: B1
Conditions: with spl_arath SPL

effect of a mutation on the interaction	Variant
decreasing interaction	MTKLPNMTTTLNHLFDLPGQICHVQCGFSTTILLVSVPFTSLSMVVTVRCGHCTSLLSVNLMKASFIPLHLLASLSHLDETGKEEVAATDGVEEEAWKVNQEKENSPTTLVSSSDNEDEDVSRVYQVVNKPPEKRQRAPSAYNCFIKEEIRRLKAQNPSMAHKEAFSLAAKNWAHFPPAHNKRAASDQCFCEEDNNAILPCNVFEDHEESNNGFRERKAQRHSIWGKSPFE [C29S]
